Positions count from the first letter of the chain named. Several values for one entry are separate records, joined by “and”; a condition that tells them apart may be missing. Identical values can stand only once.
What was measured:
[1] = molecular target: SARS-CoV-2 Spike protein on pseudotyped lentivirus (SARS-CoV-2, UniProt P0DTC2 14-1273); assay: cell-based or functional assay
[2] = molecular target: SARS-CoV-2 Spike protein on pseudotyped lentivirus (SARS-CoV-2, UniProt P0DTC2 14-1273); assay: cell-based or functional assay; remark: listed apart in the source
[3] = molecular target: T1, SARS-CoV-2 Spike receptor binding domain (RBD) (SARS-CoV-2, UniProt P0DTC2 319-541); assay: SPR, biotinylated RBD on a CAP chip
[4] = molecular target: T1, SARS-CoV-2 Spike receptor binding …

B1: mNb6-tri (trivalent mNb6 with a 20 amino acid linker) (VHH)
chain: QVQLVESGGGLVQAGGSLRLSCAASGYIFGRNAMGWYRQAPGKERELVAGITRRGSITYYADSVKGRFTISRDNAKNTVYLQMNSLKPEDTAVYYCAADPASPAYGDYWGQGTQVTVSSGGGGSGGGGSGGGGSGGGGSQVQLVESGGGLVQAGGSLRLSCAASGYIFGRNAMGWYRQAPGKERELVAGITRRGSITYYADSVKGRFTISRDNAKNTVYLQMNSLKPEDTAVYYCAADPASPAYGDYWGQGTQVTVSSGGGGSGGGGSGGGGSGGGGSQVQLVESGGGLVQAGGSLRLSCAASGYIFGRNAMGWYRQAPGKERELVAGITRRGSITYYADSVKGRFTISRDNAKNTVYLQMNSLKPEDTAVYYCAADPASPAYGDYWGQGTQVTVSS
Q: B1 was tested. Which “IC50, pseudovirus infection assay” value [1] did it give?
A: 120 pM and 5 ng/mL

B2: Nb6-tri (trivalent Nb6 with two 20 amino acid linkers) (VHH)
chain: B1 chain with Y27I, Y105P, Y166I, Y244P, Y305I, Y383P
Q: How did the “IC50, inhibition of pseudovirus infection of ACE2 expressing HEK293T cells” value (shortened to “IC50, inhibition”) [1] turn out when B2 was run?
A: 1.2 nM

Q: What about the “fold enhancement of inhibitory activity against Nb6, pseudovirus” value [1] of the same binder?
A: 2000 fold

B3: Nb11 (clone pNbCOV011A) (VHH)
VHH: HVQLVESGGGLVQAGGSLRLSCAVSGASAERVGWFRRAPGKEREFVAAIGANGGSTNYLDSVKGRFTISRDNAKNTVYLQMNSLKPQDTAVYYCAARNLETFDYTYWGRGTQVTVSS
Q: B3 was tested. Which “IC50, inhibition” value [2] did it give?
A: 2400 nM

B4: Nb6 (AeroNab6, NbCOV6, clone pNbCOV006A) (VHH)
VHH: QVQLVESGGGLVQAGGSLRLSCAASGIIFGRNAMGWYRQAPGKERELVAGITRRGSITYYADSVKGRFTISRDNAKNTVYLQMNSLKPEDTAVYYCAADPASPAPGDYWGQGTQVTVSS
notes: also called AeroNab6 MASC monomer; Parent clone (NbCOV6)
Q: With B4 as the binder, how does the Kd [3] read?
A: 41 nM

Q: And the “IC50, inhibition” value [1]?
A: 2000 nM

Q: And the EC50 [4]?
A: 190 nM

Source: patent US20230227538A1 (University of California, published 2023)
